This note sets out measurements from patent US20040091500A1.

Assay [1] addresses Serum IgE from a pool of birch allergic patients (human). Nature of the assay: fluid-phase IgE-inhibition assay.
The target is the same in assay [2]. Nature of the assay: fluid-phase IgE-inhibition assay; competitor biotinylated Bet v 1 no. 2801.

B1: Bet v 1 mutant Asn28Thr+Lys32Gln (protein)
chain: GVFNYETETTSVIPAARLFKAFILDGDTLFPQVAPQAISSVENIEGNGGPGTIKKISFPEGLPFKYVKDRVDEVDHTNFKYNYSVIEGGPIGDTLEKISNEIKIVATPDGGSILKISNKYHTKGDHEVKAEQVKASKEMGETLLRAVESYLLAHSDAYN
On to B1, for which the factor by which affinity is lowered vs recombinant Bet v 1 in assay [1] came to 2 fold.

B2: Recombinant Bet v 1 No. 2801 (protein)
chain: GVFNYETETTSVIPAARLFKAFILDGDNLFPKVAPQAISSVENIEGNGGPGTIKKISFPEGLPFKYVKDRVDEVDHTNFKYNYSVIEGGPIGDTLEKISNEIKIVATPDGGSILKISNKYHTKGDHEVKAEQVKASKEMGETLLRAVESYLLAHSDAYN
Molecule B2 registered an amount to reach 80% inhibition in assay [2] of 20 ng.

B3: Bet v 1 Pro108Gly mutant (protein)
chain: GVFNYETETTSVIPAARLFKAFILDGDNLFPKVAPQAISSVENIEGNGGPGTIKKISFPEGLPFKYVKDRVDEVDHTNFKYNYSVIEGGPIGDTLEKISNEIKIVATGDGGSILKISNKYHTKGDHEVKAEQVKASKEMGETLLRAVESYLLAHSDAYN
Turning to B3, in assay [1], the factor by which affinity is lowered vs recombinant Bet v 1 amounted to 2 fold.

B4: Bet v 1 Triple-patch mutant (Asn28Thr, Lys32Gln, Glu45Ser, Pro108Gly) (protein)
chain: GVFNYETETTSVIPAARLFKAFILDGDTLFPQVAPQAISSVENISGNGGPGTIKKISFPEGLPFKYVKDRVDEVDHTNFKYNYSVIEGGPIGDTLEKISNEIKIVATGDGGSILKISNKYHTKGDHEVKAEQVKASKEMGETLLRAVESYLLAHSDAYN
On to B4, for which, in assay [1], the factor of decrease in affinity vs recombinant Bet v 1 (at 50% inhibition) worked out at 5 fold and the factor of decrease vs recombinant Bet v 1 (at 80% inhibition) came out at 20 fold. In assay [2], this molecule gave an amount to reach 80% inhibition of 400 ng.

B5: Bet v 1 Glu45Ser mutant (protein)
chain: GVFNYETETTSVIPAARLFKAFILDGDNLFPKVAPQAISSVENISGNGGPGTIKKISFPEGLPFKYVKDRVDEVDHTNFKYNYSVIEGGPIGDTLEKISNEIKIVATPDGGSILKISNKYHTKGDHEVKAEQVKASKEMGETLLRAVESYLLAHSDAYN
For B5, the factor by which affinity is lowered vs recombinant Bet v 1 in assay [1] turned out to be 2 fold.
